Experimental data from patent publication US20250043302A1, “MUTATED HYDROXYPHENYLPYRUVATE DIOXYGENASE POLYPEPTIDE, AND CODING GENE AND USE THEREOF” (BEIJING DABEINONG BIOTECHNOLOGY CO., LTD., priority 2021, published 2025).

Experiments:
Format in all cases: in vivo
[1] = test system: Arabidopsis thaliana T1 plants; experiment: Isoxaflutole tolerance of transgenic Arabidopsis thaliana T1 plants (spray, bleached leaf area grade, damage score); parameters: Scores (pesticide damage): scale not given here; details: for Classification and statistics of the grade of pesticide damage: Grade 0 (number of plants) / Classification and statistics of the grade of pesticide damage: Grade 1 (number of plants) / Classification and statistics of the grade of pesticide damage: Grade 2 (number of plants) / Classification and statistics of the grade of pesticide damage: Grade 3 (number of plants): 16 plants; for Classification and statistics of the grade of pesticide damage Grade 0 / Classification and statistics of the grade of pesticide damage Grade 1 / Classification and statistics of the grade of pesticide damage Grade 2 / Classification and statistics of the grade of pesticide damage Grade 3: number of plants in grade
Outline: (§1)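 Damage was assessed by bleaching grade (0 none; 1 <50%; 2 >50%; 3 100% of leaf area) one week after spraying. Sprays on 18-day-old T1 and wild-type plants used field-rate multiples: topramezone 25–200, isoxaflutole 35–280, mesotrione 52.5–420 g ai/ha.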

[2] = test system: Arabidopsis thaliana T1 plants; experiment: Mesotrione tolerance of transgenic Arabidopsis thaliana T1 plants (spray, bleached leaf area grade, damage score); parameters: Scores: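 damage score 0-100 computed as Σ(N×S)/(T×M)×100 over grades 0-3 with higher meaning more damage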; details: for Grade 0 (classification and statistics of the grade of pesticide damage; number of plants) / Grade 1 (classification and statistics of the grade of pesticide damage; number of plants) / Grade 2 (classification and statistics of the grade of pesticide damage; number of plants) / Grade 3 (classification and statistics of the grade of pesticide damage; number of plants): 16 plants; for Classification and statistics of the grade of pesticide damage Grade 0 / Classification and statistics of the grade of pesticide damage Grade 1 / Classification and statistics of the grade of pesticide damage Grade 2 / Classification and statistics of the grade of pesticide damage Grade 3: number of plants in grade
Outline: as §1

[3] = test system: Arabidopsis thaliana T1 plants; experiment: Topramezone tolerance of transgenic Arabidopsis thaliana T1 plants (spray, bleached leaf area grade, damage score); details: for Classification and statistics of the grade of pesticide damage Grade 0: number of plants at grade 0; for Classification and statistics of the grade of pesticide damage Grade 1: number of plants at grade 1; for Classification and statistics of the grade of pesticide damage Grade 2: number of plants at grade 2; for Classification and statistics of the grade of pesticide damage Grade 3: number of plants at grade 3; for Classification and statistics of the grade of pesticide damage: Grade 0 / Classification and statistics of the grade of pesticide damage: Grade 1 / Classification and statistics of the grade of pesticide damage: Grade 2 / Classification and statistics of the grade of pesticide damage: Grade 3: number of plants
Outline: as §1

[4] = isoxaflutole 35 g ai/ha (0.5x field concentration), spray, Arabidopsis thaliana T1 plants
[5] = isoxaflutole 70 g ai/ha (1x field concentration), spray, Arabidopsis thaliana T1 plants
[6] = mesotrione 52.5 g ai/ha, Arabidopsis thaliana T1 plants
[7] = mesotrione 105 g ai/ha, Arabidopsis thaliana T1 plants
[8] = Table 13, topramezone 25 g ai/ha (1×)
[9] = Table 13, topramezone 100 g ai/ha (4×)
[10] = topramezone 25 g ai/ha (1×), 7 DAT, Table 4
[11] = topramezone 100 g ai/ha (4×), 7 DAT, Table 4

B1: AtHPPD-02: nucleotide sequence encoding wild-type Arabidopsis thaliana HPPD; vector DBN11730 (nucleic acid)
DNA: ATGGGACATCAGAATGCTGCTGTATCAGAAAATCAAAATCATGATGATGGAGCCGCCTCCTCACCAGGGTTTAAGTTGGTTGGGTTCTCCAAGTTTGTACGGAAGAACCCAAAATCCGACAAGTTCAAGGTTAAACGCTTCCACCACATTGAATTCTGGTGCGGCGACGCCACCAATGTTGCTCGGCGTTTTTCATGGGGTTTAGGCATGAGATTCTCAGCAAAGAGTGACCTGAGCACCGGCAACATGGTTCATGCTAGCTATCTCTTAACATCTGGAGATTTGAGGTTTCTTTTCACGGCGCCGTACTCACCATCACTCTCCGCCGGCGAGATCAAACCCACCACGACTGCAAGCATACCTTCATTTGATCATGGTAGTTGCAGATCCTTCTTCTCGTCGCACGGCCTAGGGGTGCGCGCGGTCGCCATCGAAGTTGAAGATGCAGAATCAGCGTTTAGTATCAGCGTGGCAAATGGAGCTATTCCTTCCTCCCCTCCAATTGTCCTCAATGAGGCTGTAACTATTGCCGAGGTGAAGTTGTATGGAGATGTTGTGCTGAGATATGTTTCTTACAAGGCAGAGGACACTGAGAAATCTGAATTTTTGCCTGGTTTTGAAAGGGTCGAGGATGCTTCAAGTTTTCCTCTTGATTACGGCATACGACGGTTGGATCACGCGGTTGGAAATGTACCAGAACTTGGGCCGGCGCTCACTTATGTGGCTGGTTTCACTGGATTCCATCAATTTGCTGAGTTCACAGCTGATGATGTTGGGACTGCTGAAAGTGGGTTGAACTCTGCAGTCCTCGCCTCTAATGATGAAATGGTGCTCCTCCCGATCAACGAGCCTGTGCATGGCACCAAAAGGAAATCACAAATACAGACATATCTTGAGCACAATGAAGGTGCAGGGCTTCAACATCTTGCACTGATGTCTGAAGACATTTTCCGTACGCTGAGAGAGATGAGGAAGAGAAGTAGTATTGGTGGATTTGACTTCATGCCTTCTCCCCCACCAACTTACTACCAGAACTTGAAGAAGAGGGTTGGTGATGTGCTATCTGATGACCAGATCAAGGAGTGTGAAGAATTGGGCATTCTTGTTGATCGGGACGACCAAGGAACATTACTGCAGATATTTACAAAACCACTTGGTGACCGCCCCACTATTTTTATTGAGATCATACAAAGAGTCGGCTGCATGATGAAGGATGAGGAAGGAAAAGCATATCAATCTGGTGGTTGTGGCGGCTTTGGGAAAGGAAACTTCTCTGAGCTGTTCAAATCCATCGAGGAGTATGAGAAGACCTTGGAGGCCAAGCAGCTCGTGGGTTGA
modifications: AtHPPD-02 Nucleotide Sequence
notes: vector DBN11730
Resistance evaluation ([1]; isoxaflutole 35 g ai/ha): Non-resistant | Scores ([1]; isoxaflutole 35 g ai/ha): 100 | Resistance evaluation [1, 4]: Non-resistant | Scores (pesticide damage) [1, 4]: 100 | Classification and statistics of the grade of pesticide damage: Grade 0 (number of plants) [1, 4]: 0 | Classification and statistics of the grade of pesticide damage: Grade 1 (number of plants) [1, 4]: 0 | Classification and statistics of the grade of pesticide damage: Grade 2 (number of plants) [1, 4]: 0 | Classification and statistics of the grade of pesticide damage: Grade 3 (number of plants) [1, 4]: 16 | Classification and statistics of the grade of pesticide damage Grade 0 ([1]; isoxaflutole 35 g ai/ha): 0 | Classification and statistics of the grade of pesticide damage Grade 1 ([1]; isoxaflutole 35 g ai/ha): 0 | Classification and statistics of the grade of pesticide damage Grade 2 ([1]; isoxaflutole 35 g ai/ha): 0 | Classification and statistics of the grade of pesticide damage Grade 3 ([1]; isoxaflutole 35 g ai/ha): 16 | Resistance evaluation ([1]; isoxaflutole 70 g ai/ha): Non-resistant | Scores ([1]; isoxaflutole 70 g ai/ha): 100 | Resistance evaluation [1, 5]: Non-resistant | Scores (pesticide damage) [1, 5]: 100 | Classification and statistics of the grade of pesticide damage: Grade 0 (number of plants) [1, 5]: 0 | Classification and statistics of the grade of pesticide damage: Grade 1 (number of plants) [1, 5]: 0 | Classification and statistics of the grade of pesticide damage: Grade 2 (number of plants) [1, 5]: 0 | Classification and statistics of the grade of pesticide damage: Grade 3 (number of plants) [1, 5]: 16 | Classification and statistics of the grade of pesticide damage Grade 0 ([1]; isoxaflutole 70 g ai/ha): 0 | Classification and statistics of the grade of pesticide damage Grade 1 ([1]; isoxaflutole 70 g ai/ha): 0 | Classification and statistics of the grade of pesticide damage Grade 2 ([1]; isoxaflutole 70 g ai/ha): 0 | Classification and statistics of the grade of pesticide damage Grade 3 ([1]; isoxaflutole 70 g ai/ha): 16 | Resistance evaluation ([2]; mesotrione 52.5 g ai/ha): Non-resistant | Scores ([2]; mesotrione 52.5 g ai/ha): 100 | Resistance evaluation [2, 6]: Non-resistant | Scores [2, 6]: 100 | Grade 0 (classification and statistics of the grade of pesticide damage; number of plants) [2, 6]: 0 | Grade 1 (classification and statistics of the grade of pesticide damage; number of plants) [2, 6]: 0 | Grade 2 (classification and statistics of the grade of pesticide damage; number of plants) [2, 6]: 0 | Grade 3 (classification and statistics of the grade of pesticide damage; number of plants) [2, 6]: 16 | Classification and statistics of the grade of pesticide damage Grade 0 ([2]; mesotrione 52.5 g ai/ha): 0 | Classification and statistics of the grade of pesticide damage Grade 1 ([2]; mesotrione 52.5 g ai/ha): 0 | Classification and statistics of the grade of pesticide damage Grade 2 ([2]; mesotrione 52.5 g ai/ha): 0 | Classification and statistics of the grade of pesticide damage Grade 3 ([2]; mesotrione 52.5 g ai/ha): 16 | Resistance evaluation ([2]; mesotrione 105 g ai/ha): Non-resistant | Scores ([2]; mesotrione 105 g ai/ha): 100 | Resistance evaluation [2, 7]: Non-resistant | Scores [2, 7]: 100 | Grade 0 (classification and statistics of the grade of pesticide damage; number of plants) [2, 7]: 0 | Grade 1 (classification and statistics of the grade of pesticide damage; number of plants) [2, 7]: 0 | Grade 2 (classification and statistics of the grade of pesticide damage; number of plants) [2, 7]: 0 | Grade 3 (classification and statistics of the grade of pesticide damage; number of plants) [2, 7]: 16 | Classification and statistics of the grade of pesticide damage Grade 0 ([2]; mesotrione 105 g ai/ha): 0 | Classification and statistics of the grade of pesticide damage Grade 1 ([2]; mesotrione 105 g ai/ha): 0 | Classification and statistics of the grade of pesticide damage Grade 2 ([2]; mesotrione 105 g ai/ha): 0 | Classification and statistics of the grade of pesticide damage Grade 3 ([2]; mesotrione 105 g ai/ha): 16 | Resistance evaluation [3, 8]: Non-resistant | Classification and statistics of the grade of pesticide damage Grade 0 [3, 8]: 0 | Classification and statistics of the grade of pesticide damage Grade 1 [3, 8]: 0 | Classification and statistics of the grade of pesticide damage Grade 2 [3, 8]: 0 | Classification and statistics of the grade of pesticide damage Grade 3 [3, 8]: 16 | Scores ([3]; Table 13, topramezone 25 g ai/ha (1×), pesticide damage score): 100 | Resistance evaluation [3, 9]: Non-resistant | Classification and statistics of the grade of pesticide damage Grade 0 [3, 9]: 0 | Classification and statistics of the grade of pesticide damage Grade 1 [3, 9]: 0 | Classification and statistics of the grade of pesticide damage Grade 2 [3, 9]: 0 | Classification and statistics of the grade of pesticide damage Grade 3 [3, 9]: 16 | Scores ([3]; Table 13, topramezone 100 g ai/ha (4×), pesticide damage score): 100 | Classification and statistics of the grade of pesticide damage: Grade 0 [3, 10]: 0 | Classification and statistics of the grade of pesticide damage: Grade 1 [3, 10]: 0 | Classification and statistics of the grade of pesticide damage: Grade 2 [3, 10]: 0 | Classification and statistics of the grade of pesticide damage: Grade 3 [3, 10]: 16 | Classification and statistics of the grade of pesticide damage: Grade 0 [3, 11]: 0 | Classification and statistics of the grade of pesticide damage: Grade 1 [3, 11]: 0 | Classification and statistics of the grade of pesticide damage: Grade 2 [3, 11]: 0 | Classification and statistics of the grade of pesticide damage: Grade 3 [3, 11]: 16 | Scores ([3]; pesticide damage score 0-100, topramezone 25 g ai/ha (1×), 7 DAT, Table 4): 100 | Scores ([3]; pesticide damage score 0-100, topramezone 100 g ai/ha (4×), 7 DAT, Table 4): 100 | Resistance evaluation [3, 10]: non-resistant (non-resistant plants (scores 68-100)) | Resistance evaluation [3, 11]: non-resistant (non-resistant plants (scores 68-100))
